Results: publication PMC4215226, “The Chlamydia Effector TarP Mimics the Mammalian Leucine-Aspartic Acid Motif of Paxillin to Subvert the Focal Adhesion Kinase during Invasion*” (The Journal of Biological Chemistry, 2014)

Molecular target: focal adhesion kinase (FAK) (human (endogenous in HeLa), UniProt Q05397 1-1052)
Experiment: cell-based or functional assay

focal adhesion kinase (FAK), sequence (Q05397 whole entry): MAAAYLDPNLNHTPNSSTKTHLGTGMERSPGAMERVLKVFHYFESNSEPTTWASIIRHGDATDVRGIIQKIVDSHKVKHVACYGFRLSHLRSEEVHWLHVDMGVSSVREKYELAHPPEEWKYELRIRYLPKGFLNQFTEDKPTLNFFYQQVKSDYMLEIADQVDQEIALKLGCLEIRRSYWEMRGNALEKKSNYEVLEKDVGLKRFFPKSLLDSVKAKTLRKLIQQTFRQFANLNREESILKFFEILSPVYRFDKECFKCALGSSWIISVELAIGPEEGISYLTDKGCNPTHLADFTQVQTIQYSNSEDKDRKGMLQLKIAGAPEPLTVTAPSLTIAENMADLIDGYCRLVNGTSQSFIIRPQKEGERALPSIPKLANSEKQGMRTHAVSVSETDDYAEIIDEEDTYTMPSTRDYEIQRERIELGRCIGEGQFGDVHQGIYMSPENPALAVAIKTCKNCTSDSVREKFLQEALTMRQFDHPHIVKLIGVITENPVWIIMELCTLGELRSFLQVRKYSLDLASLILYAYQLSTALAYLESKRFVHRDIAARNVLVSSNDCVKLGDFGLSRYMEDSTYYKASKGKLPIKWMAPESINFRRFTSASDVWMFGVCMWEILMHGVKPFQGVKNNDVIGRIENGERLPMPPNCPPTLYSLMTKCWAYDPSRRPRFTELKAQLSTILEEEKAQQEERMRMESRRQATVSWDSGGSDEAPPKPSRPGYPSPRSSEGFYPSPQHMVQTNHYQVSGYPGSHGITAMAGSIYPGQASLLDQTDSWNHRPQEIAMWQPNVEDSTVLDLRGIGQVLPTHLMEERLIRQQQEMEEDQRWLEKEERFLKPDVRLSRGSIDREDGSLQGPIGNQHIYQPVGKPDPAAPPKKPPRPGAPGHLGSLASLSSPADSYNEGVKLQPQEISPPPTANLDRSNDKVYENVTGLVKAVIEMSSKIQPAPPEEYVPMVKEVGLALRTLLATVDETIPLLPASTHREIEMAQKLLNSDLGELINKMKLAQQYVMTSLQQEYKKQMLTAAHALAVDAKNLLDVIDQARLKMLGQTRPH

B1: Cya18-Pax-LD2 (domain or fragment, UniProt P49024 125-186, looked up)
chain: KSAEPSPTMTSTSLGSNLSELDRLLLELNAVQHNPPSGFSADEVSRSPSLPNVTGPHYVIPE
  colocalisation of endogenous pY397-FAK with adhered Δtir EPEC in Cos7 cells expressing TirM-Pax-LD2, increase relative to the TirM-only negative control: 2.4 fold
